In patent US7439329B2, “GEF-H1b: biomarkers, complexes assays and therapeutic uses thereof” (Sugen, Inc., priority 2002, dated 2008):

Legend:
[1] = molecular target: T1, PAK4 (Homo sapiens, UniProt O96013); test: In vitro kinase assay, phosphorylation of substrates by PAK4; assay type: biochemical; conditions: autoradiography
T1 construct: Glutathione-s-transferase (GST) fused PAK4 (residues 291-591); GST (N); made in house
Method: Next examined, was whether GEF-H1 is a PAK4 substrate. In vitro kinase assays were performed using a GEF-H1 GST-fusion protein, a Maguin-2-like GST-fusion protein and GST control protein as substrates for phosphorylation by PAK4.
The cDNA encoding GEF-H1S obtained in the phage display screen was excised and subcloned into pGEX-4T expression vector to allow for recombinant production of protein for in vitro experiments. The GEF-H1S protein was then mixed with PAK4 kinase and incubated such that PAK4 phosphorylated the GEF-H1S. A portion of this kinase reaction was separated by SDS-PAGE and autoradiographed to visualize the extent of phosphorylation. […] SDS-PAGE is a universal protein separation and visualization technique that is described in Laemmli, Nature, 227(259):680-5, 1970.
From the phosphorylation experiments described above, two peptides of GEF-H1S were identified as being targets for PAK4-induced phosphorylation. The GEF-H1S target residues were identified by aligning the PAK4 activation loop peptide with the GEF-H1S polypeptide sequence amino acids 762 to 921.
The following phosphoisomers (phosphate-modified GEF-H1S peptides) were used in PAK4 kinase assays to determine which residues were specifically phosphorylated. Because certain residues were modified to comprise a phosphate moiety (the underlined residues below), they could not be phosphorylated by PAK4.
Glutathione-s-transferase (GST) fused PAK4 (residues 291-591), GEF-H1 amino acids 763-921 (from phage clone 13.8 sequence, matches KIAA0651) and Maguin 2-like (from phage clone 13.32, sequence matches accession # XP-087831) were purified by standard procedures and as previously described 31. Amino acid sequence of peptides spanning GEF-H1b 807-824 #1008 (RRRSLPAGDALYLpSFNPP) (SEQ ID NO: 28), #1009 (RRRpSLPAGDALYLSFNPP) (SEQ ID NO: 29), #1010 (RRRSLPAGDALpYLSFNPP ) (SEQ ID NO: 30) and #934 (RRRSLPAGDALYLSFNPP) (SEQ ID NO: 3) used for in vitro kinase assays. In vitro kinase reactions were run as described previously 31.

[2] = molecular target: T2, GEF-H1S (Homo sapiens, UniProt Q92974, INS962GETLAETWTR); test: Pull-down of GEF-H1 with PAK4 domains and biotinylated PAK4 peptides; assay type: binding; conditions: biotinylated PAK4 peptides linked to streptavidin beads
T2 sequence (Q92974 with tags, fused parts or gaps): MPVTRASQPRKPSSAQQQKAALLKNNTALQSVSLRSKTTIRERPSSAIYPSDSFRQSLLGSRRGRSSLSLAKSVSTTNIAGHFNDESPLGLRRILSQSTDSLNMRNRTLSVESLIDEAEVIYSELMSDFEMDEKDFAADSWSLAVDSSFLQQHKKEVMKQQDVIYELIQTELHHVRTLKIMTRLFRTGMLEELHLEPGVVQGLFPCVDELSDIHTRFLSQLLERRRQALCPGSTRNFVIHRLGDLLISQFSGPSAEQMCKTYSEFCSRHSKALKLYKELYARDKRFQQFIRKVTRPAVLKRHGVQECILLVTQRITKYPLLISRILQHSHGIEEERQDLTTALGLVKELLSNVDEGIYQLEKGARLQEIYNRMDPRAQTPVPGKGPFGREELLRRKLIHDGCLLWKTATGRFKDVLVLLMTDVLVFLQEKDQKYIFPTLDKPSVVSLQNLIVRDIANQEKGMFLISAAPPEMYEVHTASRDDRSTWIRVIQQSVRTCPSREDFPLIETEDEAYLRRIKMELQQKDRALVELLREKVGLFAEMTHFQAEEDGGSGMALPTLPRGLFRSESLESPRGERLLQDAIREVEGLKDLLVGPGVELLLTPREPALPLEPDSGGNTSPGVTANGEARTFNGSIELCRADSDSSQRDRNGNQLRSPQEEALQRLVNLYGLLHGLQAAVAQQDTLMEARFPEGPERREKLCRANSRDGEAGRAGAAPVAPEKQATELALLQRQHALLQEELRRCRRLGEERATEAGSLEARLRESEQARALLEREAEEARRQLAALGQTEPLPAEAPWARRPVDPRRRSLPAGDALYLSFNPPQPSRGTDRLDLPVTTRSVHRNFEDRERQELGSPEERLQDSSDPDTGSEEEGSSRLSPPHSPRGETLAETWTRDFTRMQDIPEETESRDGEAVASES
Method: FIG. 1: (SEQ ID NOs 32-34 respectively in order of appearance) Direct binding of GEF-H1 to PAK4. Lysates were prepared from 293T cells over expressing (a) myc tagged PAK4 alleles or subdomains and incubated with GST, GST-GEF-H1 (787-921) and GST-Maguin-like bound to Glutathione beads (1,2,3,4 bead designation) or (b) GFP-GEF-H1 and incubated with PAK4 biotinylated peptides (291-355) and (276-324) linked to streptavidin beads. An equivalent amount of beads and excess lysates (500 ug) were used. Eluates of beads and total lysates were analysed by SDS-PAGE and immunoblotted with myc or GEF-H1 antiserum; (c) represents a PAK4 gene schematic outlining the regions of PAK4 used to identify the GEF-H1 interaction domain (GID). d, alignment of the GID defined by the minimal binding region of PAK4 with PAK5 and PAK6.
To confirm the in vitro interaction of GEF-H1S with PAK4, bacterially expressed GST-fusion proteins were generated with the identical sequences isolated by phage display, encoding either amino acids 763-921 of GEF-H1S or amino acids 385-555 from the Maguin-2-like protein. These fusion proteins were bound to glutathione beads and utilized in binding assays with 293T lysates expressing exogenous PAK4.
Biotinylated peptides derived from the N-terminal region of PAK4 sequence were used to further map the GEF-H1 binding site. […]

T1 sequence (O96013 291-591): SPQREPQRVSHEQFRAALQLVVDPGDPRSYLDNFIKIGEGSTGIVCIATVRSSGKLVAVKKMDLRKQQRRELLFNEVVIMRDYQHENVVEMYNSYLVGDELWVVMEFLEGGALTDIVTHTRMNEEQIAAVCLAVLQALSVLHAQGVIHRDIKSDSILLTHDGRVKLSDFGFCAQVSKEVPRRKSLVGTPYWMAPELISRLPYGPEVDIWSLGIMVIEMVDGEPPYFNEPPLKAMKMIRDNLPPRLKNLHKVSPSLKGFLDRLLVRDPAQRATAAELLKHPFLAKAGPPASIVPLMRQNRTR

PRRRSLPAGDALYLSFNPP
phosphorylation by PAK4 in vitro [1]: phosphorylated

RQSLLGSRRGRSSLSLAK [GEF-H1 residues 55-72]
phosphorylation by PAK4 in vitro [1]: phosphorylated

RRRSLPAGDALYLSFNPP [amino acids 807-824, GEF-H1S peptide surrounding Ser 810]
phosphorylation by PAK4 in vitro [1]: high affinity substrate

CTPAAPAVPAVPGPPGPRSPQREPQRVSHEQFRAALQLVVDPGDPRSYLDNF (biotin) [amino acids 276-324]
interaction with GEF-H1S [2]: strong interaction
